B2: Snf5 (natural protein)
chain: MNNQPQGTNSVPNSIGNIFSNIGTPSFNMAQIPQQLYQSLTPQQLQMIQQRHQQLLRSRLQQQQQQQQQTSPPPQTHQSPPPPPQQSQPIANQSATSTPPPPPAPHNLHPQIGQVPLAPAPINLPPQIAQLPLATQQQVLNKLRQQAIAKNNPQVVNAITVAQQQVQRQIEQQKGQQTAQTQLEQQRQLLVQQQQQQQLRNQIQRQQQQQFRHHVQIQQQQQKQQQQQQQHQQQQQQQQQQQQQQQQQQQQQQQQQQQQQQQQQQQQQGQIPQSQQVPQVRSMSGQPPTNVQPTIGQLPQLPKLNLPKYQTIQYDPPETKLPYPTYWSDKKADTDTLLYEQIIQRDKINKYSLIRETNGYDPFSIYGFSNKEYISRLWHTLKYYQDLKNTRMKSITSTSQKIPSASIWGNGYSGYGNGITNTTTRVIPQVEVGNRKHYLEDKLKVYKQAMNETSEQLVPIRLEFDQDRDRFFLRDTLLWNKNDKLIKIEDFVDDMLRDYRFEDATREQHIDTICQSIQEQIQEFQGNPYIELNQDRLGGDDLRIRIKLDIVVGQNQLIDQFEWDISNSDNCPEEFAESMCQELELPGEFVTAIAHSIREQVHMYHKSLALLGYNFDGSAIEDDDIRSRMLPTITLDDVYRPAAESKIFTPNLLQISAAELERLDKDKDRDTRRKRRQGRSNRRGMLALSGTSASNTSMNGVHNTVAAGNASSLPPGEILLPDIADIPRTFRTPVPSTLMPGGVDVGPSVESYELRNTTTYKSRPDRPKPVSPPCYIIDHIPGHSLLLSIKLPGKVNTKEEFAAAPNDTSSGTNAMLPSPESLKTKLNSNIRAGVTIPSIPNPIANHTVTNSPNPTLQPVIPGGAASKSVPTPSLPIAPPVAPHDSEATLLTNSNNGSSNNNTQNT
B3: Snf12 (natural protein)
chain: MSKVMKPSNGKGSRKSSKAATPDTKNFFHAKKKDPVNQDKANNASQITPTVPHSHPSDMVIPDHLAELIPELYSFQQLVDSEKRLDHFIHLRNLHMKRMVAQWERSKLSQEFLYPHLNFPNVKFLRIFISNVSENQPWQMDTNNEADLMALENATWTMRIEGRLLDNVQANDPAREKFSSFIESIVVDFKNKENDNVPSTKFNAAPEENATEGPSDKKLNLNLPLQFSLPNGDNSTTTNTDQNNATMGEETAKKDMSSTTPKLESVKWQYDPNNPVDFDGLDIKRVGSENVECTISILRKSSPEEPFMSYSPQLTAIIGLKSGTSHDAIFSIYKYIHLNELLTNDESAFENLMGNRNNHNSNTSTSKMLDAASSQVSIVKLDTQLITLLPSSLKESSPDTMKLTDLLSLINSTHLLPLQPIEIDYTVRVDKASTYGELVLDIEVPDVNALKFNNTQRESQIGAAELNENARELEQIKPKIALQDKEITSVLSNLHESNKRYRFFKKISEDPVKALNECIASTSNALKVLSGDEGYNEDMVRRANFYKENEAMLRENIEVILSNGRM

Test in all cases: cryo-EM structure
In assay [1] the target is T1, Swi1 (S. cerevisiae, UniProt P09547 1-1314).
T1 sequence: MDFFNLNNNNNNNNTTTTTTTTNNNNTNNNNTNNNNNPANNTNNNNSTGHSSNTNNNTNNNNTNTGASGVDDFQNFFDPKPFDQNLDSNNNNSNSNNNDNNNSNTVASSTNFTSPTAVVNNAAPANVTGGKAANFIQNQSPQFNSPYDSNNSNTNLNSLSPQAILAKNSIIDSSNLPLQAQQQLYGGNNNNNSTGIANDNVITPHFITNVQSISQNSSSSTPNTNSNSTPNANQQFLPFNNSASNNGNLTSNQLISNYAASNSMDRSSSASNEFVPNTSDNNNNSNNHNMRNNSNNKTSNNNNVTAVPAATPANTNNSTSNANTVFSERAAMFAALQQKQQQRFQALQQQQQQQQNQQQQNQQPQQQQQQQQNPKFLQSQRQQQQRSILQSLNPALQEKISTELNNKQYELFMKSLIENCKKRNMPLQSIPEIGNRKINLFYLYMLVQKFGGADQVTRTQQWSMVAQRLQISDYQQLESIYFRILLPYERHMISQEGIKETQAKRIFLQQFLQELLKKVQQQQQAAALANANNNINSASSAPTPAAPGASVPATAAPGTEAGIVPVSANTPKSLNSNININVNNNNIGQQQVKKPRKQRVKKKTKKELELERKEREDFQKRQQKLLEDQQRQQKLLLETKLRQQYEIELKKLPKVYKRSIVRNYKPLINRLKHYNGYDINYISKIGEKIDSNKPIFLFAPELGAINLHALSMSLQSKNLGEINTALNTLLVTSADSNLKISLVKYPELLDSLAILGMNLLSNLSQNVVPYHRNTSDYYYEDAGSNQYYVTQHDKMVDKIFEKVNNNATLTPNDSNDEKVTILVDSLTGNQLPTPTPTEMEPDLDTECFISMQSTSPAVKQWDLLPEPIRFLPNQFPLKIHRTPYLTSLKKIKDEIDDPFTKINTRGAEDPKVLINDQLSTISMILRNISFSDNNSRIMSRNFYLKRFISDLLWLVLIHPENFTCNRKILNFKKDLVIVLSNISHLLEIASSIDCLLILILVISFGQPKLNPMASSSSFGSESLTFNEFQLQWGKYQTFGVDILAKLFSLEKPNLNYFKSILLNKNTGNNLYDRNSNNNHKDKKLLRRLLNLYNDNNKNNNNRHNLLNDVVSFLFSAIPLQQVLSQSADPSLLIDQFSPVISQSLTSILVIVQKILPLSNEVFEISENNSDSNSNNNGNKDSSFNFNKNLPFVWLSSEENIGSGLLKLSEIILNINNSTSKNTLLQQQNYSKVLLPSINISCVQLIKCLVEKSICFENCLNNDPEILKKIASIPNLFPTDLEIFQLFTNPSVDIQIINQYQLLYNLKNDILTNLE

The target of assay [2] is T2, Swi3 (S. cerevisiae, UniProt P32591 1-825).
T2 sequence: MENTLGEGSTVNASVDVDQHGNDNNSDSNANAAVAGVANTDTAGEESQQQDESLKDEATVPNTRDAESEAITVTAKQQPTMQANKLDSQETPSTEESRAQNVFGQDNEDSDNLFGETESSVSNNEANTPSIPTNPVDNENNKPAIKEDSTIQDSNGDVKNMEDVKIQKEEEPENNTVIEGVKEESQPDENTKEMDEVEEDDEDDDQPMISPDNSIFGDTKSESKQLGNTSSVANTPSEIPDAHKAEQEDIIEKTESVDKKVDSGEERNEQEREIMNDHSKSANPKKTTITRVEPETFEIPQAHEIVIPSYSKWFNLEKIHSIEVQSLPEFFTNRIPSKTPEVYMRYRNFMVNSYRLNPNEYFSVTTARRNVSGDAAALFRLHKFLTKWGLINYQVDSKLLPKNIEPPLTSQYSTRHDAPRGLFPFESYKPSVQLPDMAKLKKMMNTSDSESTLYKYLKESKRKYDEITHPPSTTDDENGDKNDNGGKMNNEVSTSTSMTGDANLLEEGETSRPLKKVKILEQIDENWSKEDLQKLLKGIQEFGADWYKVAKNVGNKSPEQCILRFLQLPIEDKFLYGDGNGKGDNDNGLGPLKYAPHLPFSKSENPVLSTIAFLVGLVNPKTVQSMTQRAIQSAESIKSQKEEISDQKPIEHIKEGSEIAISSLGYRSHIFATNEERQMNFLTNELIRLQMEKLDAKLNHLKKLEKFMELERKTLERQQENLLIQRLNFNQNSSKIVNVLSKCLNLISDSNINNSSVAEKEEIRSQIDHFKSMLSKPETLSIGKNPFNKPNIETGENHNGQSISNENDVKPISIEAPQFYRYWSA

For assay [3], the target named is B3.
The target in assay [4] is B2.

B1: Snf6 (natural protein)
chain: MGVIKKKRSHHGKASRQQYYSGVQVGGVGSMGAINNNIPSLTSFAEENNYQYGYSGSSAGMNGRSLTYAQQQLNKQRQDFERVRLRPEQLSNIIHDESDTISFRSNLLKNFISSNDAFNMLSLTTVPCDRIEKSRLFSEKTIRYLMQKQHEMKTQAAELQEKPLTPLKYTKLIAAAEDGSRSTKDMIDAVFEQDSHLRYQPDGVVVHRDDPALVGKLRGDLREAPADYWTHAYRDVLAQYHEAKERIRQKEVTAGEAQDEASLQQQQQQDLQQQQQVVTTVASQSPHATATEKEPVPAVVDDPLENMFGDYSNEPFNTNFDDEFGDLDAVFF
On to B1, for which the binding result in assay [1], in assay [2] and in assay [3] was “binds” in each case.

For B2, the binding result in assay [1] is “binds”.

Turning to B3, the binding result in assay [1] and in assay [2] was “binds” throughout.

B4: Swp82 (natural protein)
chain: MLGEDEGNTVLEKGNNPSVKQGEVGAVFIVPKILIREHERVILKQILQILDQDELVQPPLDKFPYKKLELPKYIDELKTRDATNTSYKMIQLDAYGEKKVGSNGELFGGRHYLFNTFTFTAHMGVLLVLLQDVIKVLYQSNATHDEDEFIVQHDQILVMETSEEQTKFLAKNGVIPEESKGSFKYITARSAFVEFGASVIAGGQRIVDDYWESLAKKQNLSSHQRVFKLSTNLISKISLLRPSFQNNRISNANEISANTNNTCTISTSKFESQYPIVTEQPSAEIREAYIENFAKGEHISAIVPGQSISGTLELSAQFRVPRYHSKNSFQQALQMKAMDIPIGRHEELLAQYESQAPDGSASISLPNHIPSVNPSNKPIKRMLSSILDINVSSSKNKKSEENEMIKPMNKGQHKNNTSLNINGWKFESLPLKSAENSGKQQYYRGLPLYEKNTLLERLKQLTPNEIKELEHLHDAVFVNTGLQNVRKVRTKKWKKYWQYKAGIPIGLKRSQLDEFKNKYLKDVLAQTSVTTNFNEITNTDETITTKRVPNPNFLGNCNIKDFKPPYIYSHVNKVPQNVAGDKTAVKLDTEVKNTNANPVVATDPVAAKPDNLANFSNEVAMNN
With B4, the binding result in assay [2] and in assay [4] was “binds” throughout.
